In US20230095569A1:
Residue numbers refer to the chain shown, from its start.

B1: Ab36 (antibody, V domains shown)
VH: EVKLEESGGGLVQPGGSMKLSCVASGFTFSNYWMNWVRQSPEKGLEWVAQIRLKSDNYATHYAESVKGMFTISRDDSKSSVYLQMNNLRAEDTGIYYCTAGGDYWGQGTTLTVSS
VL: DIVMTQSQKFMSTTVGDRVSITCKASQNVGTAVAWYHQKPGQSPKLLIYSASNRYTGVPDRFIGSGSGTDFTLTISNVQSEDLGNYFCQQYINYLLTFGSGTKLEIK
B2: Ab38 (antibody, V domains shown)
VH: QIQLVQSGPELKKPGETVKISCKASGYTFTNYGMSWVKQAPGKGLKWMGWINTYSGVPTYADDFKGRFVFSLEASASTAYLQINNLKNEDAATYFCSRWSGPDPLEDHWGQGTTLTVSS
VL: QIVLTQSPAIMSASPGEKVTMTCTASLSLNYIHWYRQRSGTSPKRWIYDTSKLASGVPSRFSGSGSGTSYSLTISSMEAEDAATYYCQQWSSNPWTFGGGTKLEIK
B3: Ab09 (antibody, V domains shown)
VH: EVQLQQSGPELVKPGTSVKMSCKASGYTFTDYNMHWVKLSHGKSLEWIGYINPNNGGTIYNQRFKGKATLTVNKSSRTAYMDLRSLTSEDSAVYYCARQGYYGNSMDYWGQGNSVTVSS
VL: DIVMTQSPSSLTVTPGERVTMSCKSSQSLLNGGNQRNYLTWYQQKPGQPPKLLIYWASTRESGVPDRFAGSGSGTDFTLTISRVQAEDLSFYYCQNSYFYPFTFGSGTKLDLR
B4: Ab11 (antibody, V domains shown)
VH: EVMLVESGGDLVKPGGSLKLSCAASGFTFSRYTMSWVRQTPEKRLEWVATVSVGSGNTYYLDSVKGRFTISRDNAKNTLFLQMNSLRSEDTALYYCTRLGQTQRNAVDYWGQGTSVTVSS
VL: DIVMTQSPSFLSVSAGEKVTMSCKSSQSLFNGGNQKNYLAWYQQKPGQPPKLLIYGASTRDSGVPDRFTGSGSGTDFTLTISNVQAEDLAIYFCQNDHSFPLTFGAGTKLELK
B5: Ab12 (antibody, V domains shown)
VH: EVMLVESGGGLVKPGGSLKLSCAASGFTFSSYTMSWVRQTPEKRLEWVATIIGGYGNTYYADSVKGRFTISRDSAKNTLYLQMLSLRSEDTALYYCTRLGQTQRNAMDYWGQGTSVTVSS
VL: DILMTQSPSSLSVSAGEKVTMSCKSSQSLLNSGNQRNYLAWYQQKPGQPPKLLIYGASTRESGVPDRFTGSGSGTDFTLTISSVQAEDLAVYYCQNDYYYPLTFGAGTKLELK
B6: Ab13 (antibody, V domains shown)
VH: EVRLVESGGGLVKPGGSLKLSCAGSGFTFSSYTMSWVRQTPEKRLEWVATITIGVNIYYLDSVKGRFTISRDNAKNTLYLQMNSLRSEDTALYYCTRLGQTQRNAMDYWGQGTSVTVSS
VL: B5 VL with L3V, S9T, S22T, R36K, Q44E, D97N, Y98H, Y99F
B7: Ab15 (antibody, V domains shown)
VH: EVMLVESGGDLVKPGGSLKLSCAASGFTFSTYTMSWVRQTPEKRLEWVATIVGGGGYTYYLDSVKGRFTISRDNAKNTLYLQMISLRSEDTALYYCARMGLTQRNALDYWGQGTSITVSS
VL: B5 VL with L3V, A15E, M21L, S22N, L30F, R36K, S73F, Y98H, Y99T, T108A
B8: Ab16 (antibody, V domains shown)
VH: EVMLVESGGGLVKPGGSLKLSCAASGFTFNSYTMSWVRQTPEKRLEWVATITVIGGNTYYLDSVKGRFTISIDNGKNTLYLQMSSLRSEDTALYYCARMGQTQRNAMDYWGQGTSVTVSS
VL: B5 VL with L3V, E17Q, S22R, R36K, P46L, T69S, S82T, Y99S, Y100F
B9: Ab17 (antibody, V domains shown)
VH: QVQLKESGPGLVAPSQSLSITCTVSGFSLTSYAISWVRQPPGKGLEWLGEIWTGGGTNYNSALKSRLSISKDNSKSQVFLKMNSLQTDDTARYYCGRLSYGNSLDYWGQGTTLTVSS
VL: DIVMTQSPSSLTVTAGEKVTMSCKSSQSLLNSGNQKNYLTWYQQKPGQPPKLLIYWASTRESGVPDRFTGSGSGTDFTLTVSSVQAEDLAVYYCQNNFIYPLTFGPGTKLELK
B10: Ab02 (antibody, V domains shown)
VH: QVQLKESGPGLVAPSQSLSITCTVSGFSLTSYAINWVRQPPGKGLEWLGVIWTGGGTNYNSALKSRLSINKDNSKSQVFLKMNSLQTDDTARYYCARFYDGYYSWFAYWGQGTLVTVSA
VL: DIVMTQSHKFMSTSVGDRVSITCKASQDVGTAVTWYQQKPGQSPKLLIYWASTRHTGVPDRFTGSGSGTDFTLTISNVQSEDLADYFCQQYSSYPFTFGSGTKLEIK
B11: Ab18 (antibody, V domains shown)
VH: QVQLKESGPGLVAPSQSLSITCTVSGFSLTTYGINWVRQPPGKGLEWLGVIWGDGSTNYHSALISRLSISKDNSKSQVFLKLNSLQTDDTATYYCVKSSYYGNAMDYWGQGTSVTVSS
VL: DIVMTQSPSSLTVTAGETVTMSCKSSQSLLNSGNQKNYLTWYQQKPGQPPKLLIYWASTRESGVPDRFTGSGSGTDFTLTISSVQAEDLAVYYCQNVYSYPFTFGSGTKLEI
B12: Ab19 (antibody, V domains shown)
VH: B4 VH with T28S, N84S, T97A, L99M
VL: DIVMTQSPSSLSVSAGEKVTMSCKSSQSLFNSGNQKNYLAWYQQKPGQPPKLLIYGASTRESGVPDRFTGSGSGTDFTLTISNVQAEDLAVYLCQNDHSFPLTFGAGTKLEL
B13: Ab20 (antibody, V domains shown)
VH: B5 VH with A23V, A61S, F68I, L84I
VL: B12 VL with V3L, S22N, F30L, N83S, L93Y, H98Y, S99Y, F100Y, L102F
B14: Ab21 (antibody, V domains shown)
VH: B5 VH with A61V, L84I
VL: B12 VL with V3L, F30L, N83S, L93Y, H98Y, S99Y, F100Y, L102F
B15: Ab22 (antibody, V domains shown)
VH: B5 VH with L84I
VL: B12 VL with V3L, F30L, R67T, N83S, L93Y, H98Y, S99Y, F100Y, L102F
B16: Ab24 (antibody, V domains shown)
VH: B6 VH with R3K
VL: B12 VL with S9T, S22T, Q44E, N83S, L93Y, D97V, S99F, F100Y, L102F

Legend:
[1] = target: Rhesus monkey Claudine18.2 (Rhesus monkey) (UniProt F6YQY3); experiment: FACS on CHOK1-rh18.2 cells
[2] = target: human Claudin18.1 (CLDN18.1) (human) (UniProt P56856); experiment: FACS on CHOK1-18.1 cells
human Claudin18.1 (CLDN18.1) (human), sequence (P56856 whole entry): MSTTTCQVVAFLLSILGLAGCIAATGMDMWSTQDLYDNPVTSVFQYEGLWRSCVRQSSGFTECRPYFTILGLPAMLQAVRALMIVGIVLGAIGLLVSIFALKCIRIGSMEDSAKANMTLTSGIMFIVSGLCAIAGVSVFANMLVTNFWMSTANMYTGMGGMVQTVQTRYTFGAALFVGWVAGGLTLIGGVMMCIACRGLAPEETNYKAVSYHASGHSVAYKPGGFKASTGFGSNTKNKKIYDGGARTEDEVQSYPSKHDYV

[3] = target: mouse Claudine18.2 (mouse) (UniProt P56857); experiment: FACS on CHOK1-m18.2 cells

Binder | FACS MFI [1] | FACS MFI [2] | FACS MFI [3]
B1 | 17400 | 4300 | 21600
B2 | 15600 | 4470 | 20400
B3 | 8100 | – | 12600
B4 | 7800 | – | 11200
B5 | 7610 | – | 13100
B6 | 5630 | – | 12500
B7 | 6320 | – | 12200
B8 | 6660 | – | 14300
B9 | 6680 | – | 13300
B10 | 1400 | – | 2040
B11 | 7890 | – | 13500
B12 | 6290 | – | 13400
B13 | 7050 | – | 13800
B14 | 8240 | – | 15200
B15 | 7330 | – | 15500
B16 | 7520 | – | 12800
